The text below walks through data of US20030133912A1 (published 2003).

The target in test [1] is T1, Soluble human transferrin receptor, purified extracellular domain (human, UniProt P02786 89-760).
T1 construct: extracellular domain; Gift material; also called hTfR; soluble hTfR
The experiment in a line: phage display panning on immobilised hTfR extracellular domain, three rounds.
Excerpt: Enzyme-linked immunosorbent assay (ELISA) plates were coated with soluble hTfR, and bound phage were eluted by a low-pH buffer. Eluted phage were amplified in E. coli K91 and subsequently screened again for binding to the immobilized hTfR. In separate experiments, bound phage were eluted with purified transferrin holoenzyme. Three rounds of screening-amplification were done for each type of elution.
Phage screening. Ten microliters of amplified nonapeptide phage library (a generous gift from Al Jesaitis, Montana State University) was screened against the purified extracellular domain of hTfR (kindly provided by Martin Lawrence, Harvard University) coated on 96-well microtiter plates in 100 μl of 0.05 M carbonate buffer (pH 9.6). In the first panning, hTfR was coated at 100 μg/ml. Subsequent pannings were done with decreasing concentrations of hTfR for increased stringency (10 and 1 μg/ml for the second and third pannings, respectively). Bound phage were eluted with low-acid buffer (0.1 M glycine, pH 2.2) or ligand (iron-loaded human transferrin; Sigma-Aldrich) in TBS buffer (50 mM Tris-Cl, pH 7.5; 150 mM NaCl). After three successive rounds of panning and amplification, clones were picked and sequenced as described elsewhere.

For test [2], the target named is T2, Human coxsackie-adenovirus receptor (CAR) expressed on CHO cells (human, UniProt P78310 20-365).
T2 sequence: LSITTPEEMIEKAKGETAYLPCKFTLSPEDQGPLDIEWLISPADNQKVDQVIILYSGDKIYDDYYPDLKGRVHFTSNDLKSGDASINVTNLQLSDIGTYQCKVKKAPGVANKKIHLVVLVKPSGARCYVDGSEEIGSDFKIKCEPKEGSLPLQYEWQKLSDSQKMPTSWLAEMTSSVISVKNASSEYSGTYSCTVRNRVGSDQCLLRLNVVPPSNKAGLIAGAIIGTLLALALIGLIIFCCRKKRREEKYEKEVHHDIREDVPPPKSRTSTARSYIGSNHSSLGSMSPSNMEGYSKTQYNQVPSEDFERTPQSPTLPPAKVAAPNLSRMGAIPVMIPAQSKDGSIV

Test [3] addresses T1, Soluble human transferrin receptor, …. Kind of test: pull-down of fiber lysate with soluble hTfR on anti-hTfR antibody 128.1 beads, Western blot with 4D2.5. For orientation: In western blotting, separated proteins are transferred to a membrane and probed.
Test [4] has as its target T2, Human coxsackie-adenovirus receptor …. The experiment in a line: 3H-labelled virus binding to CHO cells with or without hCAR, 1 h on ice.

T1 sequence (P02786 89-760): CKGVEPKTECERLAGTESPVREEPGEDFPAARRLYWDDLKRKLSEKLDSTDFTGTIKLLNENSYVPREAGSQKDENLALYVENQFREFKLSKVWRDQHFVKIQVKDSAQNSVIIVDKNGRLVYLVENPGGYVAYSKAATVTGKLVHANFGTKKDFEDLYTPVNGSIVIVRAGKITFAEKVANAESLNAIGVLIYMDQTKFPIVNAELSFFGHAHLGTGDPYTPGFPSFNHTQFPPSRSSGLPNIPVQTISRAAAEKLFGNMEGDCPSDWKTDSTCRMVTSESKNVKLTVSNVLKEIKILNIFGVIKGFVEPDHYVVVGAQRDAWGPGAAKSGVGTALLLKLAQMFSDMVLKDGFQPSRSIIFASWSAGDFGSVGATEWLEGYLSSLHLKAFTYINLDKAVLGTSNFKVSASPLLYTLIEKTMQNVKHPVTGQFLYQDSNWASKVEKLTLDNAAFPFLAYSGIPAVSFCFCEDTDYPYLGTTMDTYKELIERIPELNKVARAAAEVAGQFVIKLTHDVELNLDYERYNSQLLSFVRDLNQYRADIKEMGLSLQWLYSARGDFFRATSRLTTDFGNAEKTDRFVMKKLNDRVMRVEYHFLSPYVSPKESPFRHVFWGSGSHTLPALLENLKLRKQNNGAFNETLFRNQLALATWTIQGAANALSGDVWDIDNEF

Take KWKLHGHIK [Phage displaying peptide KWKLHGHIK]: the binding result in test [1] is reported as “binds”.

B1: Adenovirus type 5 (Ad5) fiber, wild type (other)
chain: MKRARPSEDTFNPVYPYDTETGPPTVPFLTPPFVSPNGFQESPPGVLSLRLSEPLVTSNGMLALKMGNGLSLDEAGNLTSQNVTTVSPPLKKTKSNINLEISAPLTVTSEALTVAAAAPLMVAGNTLTMQSQAPLTVHDSKLSIATQGPLTVSEGKLALQTSGPLTTTDSSTLTITASPPLTTATGSLGIDLKEPIYTQNGKLGLKYGAPLHVTDDLNTLTVATGPGVTINNTSLQTKVTGALGFDSQGNMQLNVAGGLRIDSQNRRLILDVSYPFDAQNQLNLRLGQGPLFINSAHNLDINYNKGLYLFTASNNSKKLEVNLSTAKGLMFDATAIAINAGDGLEFGSPNAPNTNPLKTKIGHGLEFDSNKAMVPKLGTGLSFDSTGAITVGNKNNDKLTIWTTPAPSPNCRLNAEKDAKLTLVLTKCGSQILATVSVLAVKGSLAPISGTVQSAHLIIRFDENGVLLNNSFLDPEYWNFRNGDLTEGTAYTNAVGFMPNLSAYPKSHGKTAKSNIVSQVYLNGDKTKPVTLTITLNGTQETGDTTPSAYSMSFSWDWSGHNYINEIFATSSYTFSYIAQE
notes: also called Ad5GFP; Ad5RSVeGFP
As for B1, the “fold increase in bound particles with CAR expression” value in test [2] amounted to 3.6 fold. The binding result in test [3] is given as “no binding”.

B2: Chimeric Ad5/30 fiber (Ad5 tail, Ad30 shaft and knob) on virus Ad5GFPf30 (other)
chain: MKRARPSEDTFNPVYPYDTETGPPTVPFLTPPFVSPNGFQESPPGVLSLKLADPIAITNGDVSLKVGGGLTVEQDSGNLSVNPKAPLQVGTDKKLELALAPPFDVRDNKLAILVGDGLKVIDRSISDLPGLLNYLVVLTGKGIGNEELKNDDGSNKGVGLCVRIGEGGGLTFDDKGYLVAWNNKHDIRTIWTTLDPSPNCKIDIEKDSKLTLVLTKCGSQILANVSLIIVNGKFKILNNKTDPSLPKSFNIKLLFDQNGVLLENSNIEKQYLNFRSGDSILPEPYKNAIGFMPNLLAYAKATTDQSKIYARNTIYGNIYLDNQPYNPVVIKITFNNEADSAYSITFNYSWTKDYDNIPFDSTSFTFSYIAQE
notes: also called Ad5RSVeGFPf30; AdGFPf30
In the case of B2, in test [4], the binding result was “no binding”.
With GKGPKWMR [Phage displaying peptide GKGPKWMR], the binding result in test [1] is “binds”.

B3: Adenovirus type 30 (Ad30) fiber on wild-type Ad30 virus (other)
chain: MSKRLRVEDDFNPVYPYGYARNQNIPFLTPPFVSSDGFKNFPPGVLSLKLADPIAITNGDVSLKVGGGLTVEQDSGNLSVNPKAPLQVGTDKKLELALAPPFDVRDNKLAILVGDGLKVIDRSISDLPGLLNYLVVLTGKGIGNEELKNDDGSNKGVGLCVRIGEGGGLTFDDKGYLVAWNNKHDIRTIWTTLDPSPNCKIDIEKDSKLTLVLTKCGSQILANVSLIIVNGKFKILNNKTDPSLPKSFNIKLLFDQNGVLLENSNIEKQYLNFRSGDSILPEPYKNAIGFMPNLLAYAKATTDQSKIYARNTIYGNIYLDNQPYNPVVIKITFNNEADSAYSITFNYSWTKDYDNIPFDSTSFTFSYIAQE
notes: Tested as 3H-labelled wild-type Ad30 virions; also called Ad30 wildtype; Ad30 (VR-273)
For B3, in test [4], the binding result is reported as “no binding”.
AIAKKHKWN [Phage displaying peptide AIAKKHKWN]: the binding result in test [1] was “binds”.
